This passage reports stoichiometry N results from publication doi:10.1101/173674.

What all share (experiment): crystal structure
The target in test [1] is HpiC1 F138S (Fischerella sp. ATCC 43239).
Test [2] has as its target HpiC1 W73M/K132M selenomethionine derivative (Fischerella sp. ATCC 43239).
Test [3] concerns the target HpiC1 Y101F (Fischerella sp. ATCC 43239).
The target in test [4] is HpiC1 Y101F/F138S (Fischerella sp. ATCC 43239).
For test [5], the target named is HpiC1 Y101S (Fischerella sp. ATCC 43239).
The target in test [6] is HpiC1 native (Fischerella sp. ATCC 43239).

In test [1], HpiC1 F138S (enzyme) returned a stoichiometry N of 2.
In test [2], “HpiC1 W73M/K132M selenomethionine derivative (enzyme)” had a stoichiometry N of 2.
For HpiC1 Y101F (enzyme), in test [3], the stoichiometry N came to 2.
As for HpiC1 Y101F/F138S (enzyme), in test [4], the stoichiometry N is 2.
HpiC1 Y101S (enzyme) gave a stoichiometry N in test [5] of 2.
HpiC1 native (enzyme) registered a stoichiometry N in test [6] of 2.

Usually stoichiometry N stands for the number of molecules, sites or subunits per partner or assembly.
